Molecular target: T1, cynomolgus monkey FcγRIIb extracellular domain, C-terminal His-tag (cynomolgus monkey)
T1 construct: also called cyno FcγRIIb; cynoFcγRIIb; not shown: His-tag added to C-terminus
T1 chain: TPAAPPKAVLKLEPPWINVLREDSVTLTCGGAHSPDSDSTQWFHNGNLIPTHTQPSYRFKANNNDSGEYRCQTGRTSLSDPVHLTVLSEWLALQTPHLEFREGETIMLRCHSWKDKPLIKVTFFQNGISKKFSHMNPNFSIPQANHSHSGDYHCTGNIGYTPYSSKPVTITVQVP
Assay: SPR (BIACORE); KD of parent SG1 / KD of variant

B1: MS_M103205H795-SG1/M103202L889-SK1 (antibody, human IgG1, kappa)
heavy: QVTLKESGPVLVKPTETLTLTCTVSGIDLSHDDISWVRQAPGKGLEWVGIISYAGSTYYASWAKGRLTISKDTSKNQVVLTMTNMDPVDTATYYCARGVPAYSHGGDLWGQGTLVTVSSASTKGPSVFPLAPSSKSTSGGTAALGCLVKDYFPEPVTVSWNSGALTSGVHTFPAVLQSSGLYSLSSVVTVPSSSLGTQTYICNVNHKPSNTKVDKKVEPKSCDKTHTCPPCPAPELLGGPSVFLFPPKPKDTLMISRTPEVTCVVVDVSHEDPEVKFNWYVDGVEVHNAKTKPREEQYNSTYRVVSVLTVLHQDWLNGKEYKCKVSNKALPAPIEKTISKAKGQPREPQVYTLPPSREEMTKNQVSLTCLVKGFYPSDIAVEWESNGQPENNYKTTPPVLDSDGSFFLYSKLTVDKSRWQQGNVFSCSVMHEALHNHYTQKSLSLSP
light: DIVMTQSPATLSLSPGERATLSCTSSQSVYHANWLSWFQQKPGQPPKLLIYWASTLAYGVPSRFSGSGSGTDFTLTISSLQPEDAATYYCAGGYGGGRYAFGQGTKVEIKRTVAAPSVFIFPPSDEQLKSGTASVVCLLNNFYPREAKVQWKVDNALQSGNSQESVTEQDSKDSTYSLSSTLTLSKADYEKHKVYACEVTHQGLSSPVTKSFNRGEC
notes: Parent antibody with SG1 human heavy chain constant region; also called MS1032LO06-SG1
KD fold (SG1 = 1): 1 fold

Reference: US20200317768A1 (published 2020)
